Key:
[1] = test system: PPIs of the SKEMPI data set (by PDBID); assay: SKEMPI experimental ΔΔG, single mutations to alanine; type: binding; conditions: for sk_class: class of the SKEMPI experimental ΔΔG; for sk_class (class of the SKEMPI experimental ΔΔG): class by the 4.184 kJ/mol threshold, r_group DERKH
[2] = test system: PPIs of the SKEMPI data set (by PDBID); conditions: ref SKEMPI, cited from earlier work; for sk_ddG_kJ: SKEMPI experimental ΔΔG of binding; for sk_ddG_kJ / sk_ddG_kJ (SKEMPI experimental ΔΔG, mutation to alanine): single mutation to alanine, complex by PDBID
[3] = sheet sortedByGroup, r_group DERKH

B1: 1DFJ DI431A (protein, UniProt P10775 1-456, looked up, variant D431A)
Ribonuclease inhibitor: MNLDIHCEQLSDARWTELLPLLQQYEVVRLDDCGLTEEHCKDIGSALRANPSLTELCLRTNELGDAGVHLVLQGLQSPTCKIQKLSLQNCSLTEAGCGVLPSTLRSLPTLRELHLSDNPLGDAGLRLLCEGLLDPQCHLEKLQLEYCRLTAASCEPLASVLRATRALKELTVSNNDIGEAGARVLGQGLADSACQLETLRLENCGLTPANCKDLCGIVASQASLRELDLGSNGLGDAGIAELCPGLLSPASRLKTLWLWECDITASGCRDLCRVLQAKETLKELSLAGNKLGDEGARLLCESLLQPGCQLESLWVKSCSLTAACCQHVSLMLTQNKHLLELQLSSNKLGDSGIQELCQALSQPGTTLRVLCLGDCEVTNSGCSSLASLLLANRSLRELDLSNNCVGDPGVLQLLGSLEQPGCALEQLVLYATYWTEEVEDRLQALEGSKPGLRVIS
Question: Which sk_class ([1]; ref SKEMPI) does the source give for B1 here?
Answer: Positive (positive (a hot residue) ΔΔG ≥ 4.184 kJ/mol)

Question: And the sk_ddG_kJ [2]?
Answer: 15.31 kJ

B2: 1DFJ RI453A (protein, UniProt P10775 1-456, looked up, variant R453A)
Ribonuclease inhibitor: MNLDIHCEQLSDARWTELLPLLQQYEVVRLDDCGLTEEHCKDIGSALRANPSLTELCLRTNELGDAGVHLVLQGLQSPTCKIQKLSLQNCSLTEAGCGVLPSTLRSLPTLRELHLSDNPLGDAGLRLLCEGLLDPQCHLEKLQLEYCRLTAASCEPLASVLRATRALKELTVSNNDIGEAGARVLGQGLADSACQLETLRLENCGLTPANCKDLCGIVASQASLRELDLGSNGLGDAGIAELCPGLLSPASRLKTLWLWECDITASGCRDLCRVLQAKETLKELSLAGNKLGDEGARLLCESLLQPGCQLESLWVKSCSLTAACCQHVSLMLTQNKHLLELQLSSNKLGDSGIQELCQALSQPGTTLRVLCLGDCEVTNSGCSSLASLLLANRSLRELDLSNNCVGDPGVLQLLGSLEQPGCALEQLVLYDTYWTEEVEDRLQALEGSKPGLAVIS
Question: What does the source list for B2?
Answer: sk_class ([1]; ref SKEMPI): Neutral (neutral (little effect) 4.184 kJ/mol < ΔΔG > −4.184 kJ/mol); sk_ddG_kJ [2]: 3.56 kJ

B3: 1EMV DA26A (protein, UniProt P13479 1-86, looked up, variant D26A)
Colicin-E9 immunity protein: MELKHSISDYTEAEFLQLVTTICNAATSSEEELVKLVTHFEEMTEHPSGSDLIYYPKEGDDDSPSGIVNTVKQWRAANGKSGFKQG
Question: With B3 as the molecule, how does the “sk_class (class of the SKEMPI experimental ΔΔG)” value [1] read?
Answer: Neutral (neutral (little effect) 4.184 kJ/mol < ΔΔG > −4.184 kJ/mol)

Question: What about the “sk_ddG_kJ (SKEMPI experimental ΔΔG, mutation to alanine)” value [2, 3] of the same molecule?
Answer: 1.42 kJ

B4: 1EMV DA51A (protein, UniProt P13479 1-86, looked up, variant D51A)
Colicin-E9 immunity protein: MELKHSISDYTEAEFLQLVTTICNADTSSEEELVKLVTHFEEMTEHPSGSALIYYPKEGDDDSPSGIVNTVKQWRAANGKSGFKQG
Question: What does the source list for B4?
Answer: sk_class (class of the SKEMPI experimental ΔΔG) [1]: Positive (positive (a hot residue) ΔΔG ≥ 4.184 kJ/mol); sk_ddG_kJ (SKEMPI experimental ΔΔG, mutation to alanine) [2, 3]: 24.77 kJ

B5: 1EMV HA46A (protein, UniProt P13479 1-86, looked up, variant H46A)
Colicin-E9 immunity protein: MELKHSISDYTEAEFLQLVTTICNADTSSEEELVKLVTHFEEMTEAPSGSDLIYYPKEGDDDSPSGIVNTVKQWRAANGKSGFKQG
Question: With B5 as the molecule, how does the “sk_class (class of the SKEMPI experimental ΔΔG)” value [1] read?
Answer: Neutral (neutral (little effect) 4.184 kJ/mol < ΔΔG > −4.184 kJ/mol)

Question: And the “sk_ddG_kJ (SKEMPI experimental ΔΔG, mutation to alanine)” value [2, 3]?
Answer: 3.47 kJ

B6: 1EMV EA41A (protein, UniProt P13479 1-86, looked up, variant E41A)
Colicin-E9 immunity protein: MELKHSISDYTEAEFLQLVTTICNADTSSEEELVKLVTHFAEMTEHPSGSDLIYYPKEGDDDSPSGIVNTVKQWRAANGKSGFKQG
Question: Which results are given for B6?
Answer: sk_class (class of the SKEMPI experimental ΔΔG) [1]: Positive (positive (a hot residue) ΔΔG ≥ 4.184 kJ/mol); sk_ddG_kJ (SKEMPI experimental ΔΔG, mutation to alanine) [2, 3]: 8.70 kJ

B7: 1EMV EA31A (protein, UniProt P13479 1-86, looked up, variant E31A)
Colicin-E9 immunity protein: MELKHSISDYTEAEFLQLVTTICNADTSSEAELVKLVTHFEEMTEHPSGSDLIYYPKEGDDDSPSGIVNTVKQWRAANGKSGFKQG
Question: Which “sk_class (class of the SKEMPI experimental ΔΔG)” value [1] does the source give for B7 here?
Answer: Neutral (neutral (little effect) 4.184 kJ/mol < ΔΔG > −4.184 kJ/mol)

Question: What about the “sk_ddG_kJ (SKEMPI experimental ΔΔG, mutation to alanine)” value [2, 3] of the same molecule?
Answer: 1.30 kJ

B8: 1EMV EA32A (protein, UniProt P13479 1-86, looked up, variant E32A)
Colicin-E9 immunity protein: MELKHSISDYTEAEFLQLVTTICNADTSSEEALVKLVTHFEEMTEHPSGSDLIYYPKEGDDDSPSGIVNTVKQWRAANGKSGFKQG
Question: For B8, which “sk_class (class of the SKEMPI experimental ΔΔG)” value [1] is on record?
Answer: Neutral (neutral (little effect) 4.184 kJ/mol < ΔΔG > −4.184 kJ/mol)

Question: And the “sk_ddG_kJ (SKEMPI experimental ΔΔG, mutation to alanine)” value [2, 3]?
Answer: 0.92 kJ

B9: 1EMV DA60A (protein, UniProt P13479 1-86, looked up, variant D60A)
Colicin-E9 immunity protein: MELKHSISDYTEAEFLQLVTTICNADTSSEEELVKLVTHFEEMTEHPSGSDLIYYPKEGADDSPSGIVNTVKQWRAANGKSGFKQG
Question: For B9, which “sk_class (class of the SKEMPI experimental ΔΔG)” value [1] is on record?
Answer: Neutral (neutral (little effect) 4.184 kJ/mol < ΔΔG > −4.184 kJ/mol)

Question: What about the “sk_ddG_kJ (SKEMPI experimental ΔΔG, mutation to alanine)” value [2, 3] of the same molecule?
Answer: 2.13 kJ

B10: 1JRH KI47A (protein, UniProt P15260 18-245, looked up, variant K47A)
extracellular domain: EMGTADLGPSSVPTPTNVTIESYNMNPIVYWEYQIMPQVPVFTVEVANYGVKNSEWIDACINISHHYCNISDHVGDPSNSLWVRVKARVGQKESAYAKSEEFAVCRDGKIGPPKLDIRKEEKQIMIDIFHPSVFVNGDEQEVDYDPETTCYIRVYNVYVRMNGSEIQYKILTQKEDDCDEIQCQLAIPVSSLNSQYCVSAEGVLHVWGVTTEKSKEVCITIFNSSIKG
modifications: extracellular domain
Question: What does the source list for B10?
Answer: sk_class [1]: Positive (positive (a hot residue) ΔΔG ≥ 4.184 kJ/mol); sk_ddG_kJ (SKEMPI experimental ΔΔG, single mutation to alanine) ([2]; sheet sortedByGroup, r_group DERKH, complex given by PDBID): 16.11 kJ

B11: 1IAR EA19A (protein, UniProt P05112 25-153, looked up, variant E19A)
Interleukin-4: HKCDITLQEIIKTLNSLTAQKTLCTELTVTDIFAASKNTTEKETFCRAATVLRQFYSHHEKDTRCLGATAQQFHRHKQLIRFLKRLDRNLWGLAGLNSCPVKEANQSTLENFLERLKTIMREKYSKCSS
Question: What does the source list for B11?
Answer: sk_class (class of the SKEMPI experimental ΔΔG) [1]: Neutral (neutral (little effect) 4.184 kJ/mol < ΔΔG > −4.184 kJ/mol); sk_ddG_kJ (SKEMPI experimental ΔΔG, mutation to alanine) [2, 3]: -1.34 kJ

B12: 1IAR KA77A (protein, UniProt P05112 25-153, looked up, variant K77A)
Interleukin-4: HKCDITLQEIIKTLNSLTEQKTLCTELTVTDIFAASKNTTEKETFCRAATVLRQFYSHHEKDTRCLGATAQQFHRHAQLIRFLKRLDRNLWGLAGLNSCPVKEANQSTLENFLERLKTIMREKYSKCSS
Question: Which “sk_class (class of the SKEMPI experimental ΔΔG)” value [1] does the source give for B12 here?
Answer: Neutral (neutral (little effect) 4.184 kJ/mol < ΔΔG > −4.184 kJ/mol)

Question: What about the “sk_ddG_kJ (SKEMPI experimental ΔΔG, mutation to alanine)” value [2, 3] of the same molecule?
Answer: 0.63 kJ

B13: 1IAR RA85A (protein, UniProt P05112 25-153, looked up, variant R85A)
Interleukin-4: HKCDITLQEIIKTLNSLTEQKTLCTELTVTDIFAASKNTTEKETFCRAATVLRQFYSHHEKDTRCLGATAQQFHRHKQLIRFLKALDRNLWGLAGLNSCPVKEANQSTLENFLERLKTIMREKYSKCSS
Question: What does the source list for B13?
Answer: sk_class (class of the SKEMPI experimental ΔΔG) [1]: Neutral (neutral (little effect) 4.184 kJ/mol < ΔΔG > −4.184 kJ/mol); sk_ddG_kJ (SKEMPI experimental ΔΔG, mutation to alanine) [2, 3]: 1.80 kJ

B14: 1IAR RA81A (protein, UniProt P05112 25-153, looked up, variant R81A)
Interleukin-4: HKCDITLQEIIKTLNSLTEQKTLCTELTVTDIFAASKNTTEKETFCRAATVLRQFYSHHEKDTRCLGATAQQFHRHKQLIAFLKRLDRNLWGLAGLNSCPVKEANQSTLENFLERLKTIMREKYSKCSS
Question: With B14 as the molecule, how does the “sk_class (class of the SKEMPI experimental ΔΔG)” value [1] read?
Answer: Neutral (neutral (little effect) 4.184 kJ/mol < ΔΔG > −4.184 kJ/mol)

Question: And the “sk_ddG_kJ (SKEMPI experimental ΔΔG, mutation to alanine)” value [2, 3]?
Answer: 2.01 kJ

B15: 1IAR KA84A (protein, UniProt P05112 25-153, looked up, variant K84A)
Interleukin-4: HKCDITLQEIIKTLNSLTEQKTLCTELTVTDIFAASKNTTEKETFCRAATVLRQFYSHHEKDTRCLGATAQQFHRHKQLIRFLARLDRNLWGLAGLNSCPVKEANQSTLENFLERLKTIMREKYSKCSS
Question: With B15 as the molecule, how does the “sk_class (class of the SKEMPI experimental ΔΔG)” value [1] read?
Answer: Neutral (neutral (little effect) 4.184 kJ/mol < ΔΔG > −4.184 kJ/mol)

Question: And the “sk_ddG_kJ (SKEMPI experimental ΔΔG, mutation to alanine)” value [2, 3]?
Answer: 1.46 kJ

From paper PMC6804253, “Predicting and Experimentally Validating Hot-Spot Residues at Protein–Protein Interfaces” (ACS Chemical Biology, 2019)
